Data reported in patent US9751932B2, “Anti-big-endothelin-1 (big-ET-1) antibodies and uses thereof” (Regeneron Pharmaceuticals, Inc., priority 2012, dated 2017).
Positions count from the first letter of the chain named. Names and notes keep the numbering of the source. Each block holds one molecule with its values, some of them ahead of it.

What was measured:
[1] = molecular target: T1, human big-ET-1 (SEQ ID NO:434) (Homo sapiens, UniProt P05305); experiment: Surface plasmon resonance (Biacore) binding, mAb capture format, 37° C.; details: for ka / kd: analyte human big-ET-1, mAb capture
T1 sequence (P05305 53-90 limits assumed): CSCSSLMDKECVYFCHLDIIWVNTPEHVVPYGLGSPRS
Protocol: (§1) Measurements were conducted on a T200 Biacore instrument (Biacore Life Sciences division of GE Healthcare, Piscataway, N.J.). […] Different concentrations of small-ET-1 (SEQ ID NO:435), human big-ET-1 (SEQ ID NO:434) or mouse big-ET-1 (SEQ ID NO:437) were injected over the anti-big-ET-1 captured surfaces at a flow rate of 100 μl/min. Peptide binding was monitored for 3 min while dissociation of mAb-bound peptide was monitored for 4 min in HBST running buffer (0.01 M HEPES pH 7.4, 0.15 M NaCl, 3 mM EDTA, 0.005% v/v Surfactant P20). Kinetic association (ka) and dissociation (kd) rate constants were determined by processing and fitting the data to a 1:1 binding model using Scrubber 2.0 curve fitting software.

[2] = molecular target: T2, mouse big-ET-1 (SEQ ID NO:437) (Mus musculus, UniProt P22387); experiment: as above; details: for ka / kd / Kd: analyte mouse big-ET-1, mAb capture; for Kd: KD=kd/ka
T2 sequence (P22387 53-91 limits assumed): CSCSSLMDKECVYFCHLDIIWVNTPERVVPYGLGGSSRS
Protocol: as §1

B1: H4H6330P: anti-big-ET-1 antibody, human IgG4 Fc; HCVR/LCVR SEQ ID NO: 210/218 (antibody, V domains shown)
VH: EVQLVESGGGLVQPGGSLRLSCAASGFTFSNYAMSWVRQAPGKGLEWVSAVSGSGVGTYYADSVKGRFTISRDNSKNTLYLQMKSLSAEDTALYYCTKTLGGTHAFDIWGQGTMVTVSS
VL: DIQMTQSPSTLSASVGDRVTITCRASQSISRWLAWYQQKPGKAPKLLIYKASSLESGVPSRFSGSGSGTEFTVTINSLQPDDFATYYCQQYNSYSSFGQGTKLEIK
modifications: human IgG4 Fc
ka [1]: 1.42e+06 M/s | kd [1]: 0.0324 s⁻¹ | ka [2]: 1.5e+06 M/s | kd [2]: 0.072 s⁻¹

B3: H1M6492N: anti-big-ET-1 hybridoma antibody, H1M Fc; HCVR/LCVR SEQ ID NO: 34/42 (antibody, V domains shown)
VH: EVQLVESGGGLVKPGGSLRVSCVASGFTFSNAWMTWVRQTPGKGLECVGRIKSRTDGGTVDYVAPVKGRFTISRDDSKNTLYLQMNSLKAEDTAVYYCRADLDYWGQGTLVTVSS
VL: DVVMTQSPLSLPVSLGQPASISCRSSQSLVHSDGITYLNWFQQRPGQSPRRLIYKISNRDSGVPDRFSGSGSGTDFTLKFSRVEAEDVGVYFCMQGTHWPYTFGQGTKLEIK
modifications: mouse Fc
binding to human big-ET-1 (in words) [1]: high affinity binding | ka [1]: 248000 M/s | kd [1]: 0.0016 s⁻¹ | binding to mouse big-ET-1 (in words) [2]: did not show any binding | Kd [2]: > 1 µM

B5: H4H6353P: anti-big-ET-1 antibody, human IgG4 Fc; HCVR/LCVR SEQ ID NO: 386/394 (antibody, V domains shown)
VH: EVQLVESGGGLVKPGGSLRLSCAASGFSFNYAWMSWVRQAPGKGLEWIGRIKSKINGGTTDYTAPVKGRFTISRDDSKNTLYLQMNSLKTEDTAVYYCRGDEDFWGQGTLVTVSS
VL: B3 VL with S14T, H31Y, I35F, Q42R, I56V, K79R, F80I, V90I, F92Y
modifications: human IgG4 Fc
ka [1]: 1.14e+06 M/s | kd [1]: 0.00116 s⁻¹ | ka [2]: 2900 M/s | kd [2]: 0.00236 s⁻¹

B7: H4H6317P: anti-big-ET-1 antibody, human IgG4 Fc; HCVR/LCVR SEQ ID NO: 130/138 (antibody, V domains shown)
VH: QVQLVESGGGVVQPGRSLRLSCAASGFTFSSYGMHWVRQAPGKGLEWVAVLWYDGRNKYYADSVKGRFTISRDNSKNTLYLQMNSLRAEDTAVYYCARSYDAFDIWGQGTMVTVSS
VL: DIQMTQSPSTLSASVGDRVTITCRASQSISSWLAWFQQGPGRAPKLLIYKASTLQSGVPSRFSGSGSGTEFTLTISSLQPDDFATYYCQQYRSYSPTFGQGTKVEIK
modifications: human IgG4 Fc
binding to human big-ET-1 (in words) [1]: high affinity binding | ka [1]: 36700 M/s | kd [1]: 0.000199 s⁻¹ | binding to mouse big-ET-1 (in words) [2]: did not show any binding | Kd [2]: > 1 µM

B8: H4H6329P: anti-big-ET-1 antibody, human IgG4 Fc; HCVR/LCVR SEQ ID NO: 194/202 (antibody, V domains shown)
VH: QVQLVESGGGVVQPGRSLRLSCAASGFTFGSYGMHWVRQAPGKGLEWVAVIWYDGSDEYYTDSVKGRFTVSRDNSKYTLYLQMNSLRADDTAVYYCARDGYRTRGNYFDYWGQGTLVTVSS
VL: DVVMTQSPLSLPVALGQPASISCRSSQSLVYSDGNTYLNWFQQRPGQSPRRLIYKVSNRDSGVPDRFGGSGSGTDFTLKISRVEAEDVGLYYCMQGTHWPPTFGGGTKVEIK
modifications: human IgG4 Fc
ka [1]: 595000 M/s | kd [1]: 0.000176 s⁻¹ | ka [2]: 11600 M/s | kd [2]: 0.000223 s⁻¹

The remaining lines, values ahead:

ka [1]: 663000 M/s | kd [1]: 0.058 s⁻¹ | ka [2]: 1.5e+06 M/s | kd [2]: 0.0974 s⁻¹
B2: H4H6345P: anti-big-ET-1 antibody, human IgG4 Fc; HCVR/LCVR SEQ ID NO: 354/362 (antibody, V domains shown)
VH: EVQLVESGGGLVQPGGSLRLSCAASGFIFSSYAMTWVRQAPGKGLEWVSAISGSGVSTYYADSVKGRFTISRDNSKNTLYLQMNSLRIEDTAVYYCGKARTGTHAFDIWGQGTMVTVSS
VL: B1 VL with S56T, V73L, N76S, A84G, Q99P, L103V, E104D
modifications: human IgG4 Fc

binding to human big-ET-1 (in words) [1]: high affinity binding | ka [1]: 239000 M/s | kd [1]: 0.00169 s⁻¹ | binding to mouse big-ET-1 (in words) [2]: did not show any binding | Kd [2]: > 1 µM
B4: H1M6494N: anti-big-ET-1 hybridoma antibody, H1M Fc; HCVR/LCVR SEQ ID NO: 50/58 (antibody, V domains shown)
VH: B3 VH
VL: B3 VL
modifications: mouse Fc

ka [1]: 565000 M/s | kd [1]: 0.00569 s⁻¹ | ka [2]: 580000 M/s | kd [2]: 0.0192 s⁻¹
B6: H4H6323P: anti-big-ET-1 antibody, human IgG4 Fc; HCVR/LCVR SEQ ID NO: 146/154 (antibody, V domains shown)
VH: QITLKESGPPLVKPTQTLTLTCTFSGFSLNTNGMGVGWIRQPPGKALEWLTLIYWNDDKRYSPSLKTRLTITKDTSKNQVVLTMTNMDPVDTATYYCARFGSGTYWGQGTLVTVSS
VL: DIVMTQSPLSLPVTPGEPASISCRSSQSLLHSYGYNFLDWFLQKPGQSPQLLIYLGSHRASGVPDRFSGSGSGTDFTLKISRVEAEDVGVYYCMQALQTPLTFGGGTKVEIK
modifications: human IgG4 Fc
